Our source for the ratio of PI5P4K2β:PI5P4K2α in the pull-down values is article PMC4329988.

In this assay the target is phosphatidyl inositol 5-phosphate 4-kinase 2β subunit (PI5P4K2β), C-terminal 3xFLAG and two 6xHis tags (chicken (endogenous in DT40)). As to the kind of experiment: affinity purification with mass spectrometry; SILAC-iPAC: lysates of JPR3 cells (tagged PI5P4K2β) and tag-less wild-type DT40 cells, differentially SILAC labelled (K6R6 or K0R0, reciprocal labellings), mixed 1:1; captured in parallel on EZview ANTI-FLAG M2 Affinity Gel and TALON Metal Affinity Resin for 1 h; lysis buffer 1x PBS pH 7.4, 1% Triton X-100; eluted with 3xFLAG peptide or 150 mM imidazole; LC-MS/MS, MaxQuant ratios.

B1: phosphatidyl inositol 5-phosphate 4-kinase 2α subunit (PI5P4K2α) (natural protein)
chain: MAAPGTVASVMASKTKTKKKHFVVQKVKLFRASDPLLSVLMWGVNHSINELSHVQIPVMLMPDDFKAYSKIKVDNHLFNKENMPSHFKFKEYCPMVFRNLRERFGIDDQDFQNSLTRSAPLANDSQARSGARFHTSYDKRYIIKTITSEDVAEMHNILKKYHQFIVECHGNTLLPQFLGMYRLTVDGVEIYMIVTRNVFSHRLSVYRKYDLKGSTVAREASDKEKAKELPTFKDNDFINDGQKIHIDENNKRMFLEKLKKDVEFLAQLKLMDYSLLVGIHDVERAEQEEVECEENDGEDEGESDGTHPIGTPPDSPGNTLNSSLPLAPGEFDPAIDVYGIKSHESAPRKEVYFMAIIDILTHYDAKKKAAHAAKTVKHGAGAEISTVNPEQYSKRFLDFIANILT
In the case of B1, the ratio of PI5P4K2β:PI5P4K2α in the pull-down amounted to 1.28.
